The supplement of paper PMC7877785
± gives the uncertainty stated by the source.

Assay: self-splicing fitness, log relative to wild type (ln ratio); higher = more splicing; Tetrahymena group I intron in knt gene, E. coli kanamycin selection, DiMSum; sequences stand for … in CUCUCU…GGAGGGAAAAGUUAUCAGGCAUGCACCUGGUAGCUAGUCUUUAAACCAAUAGAUUGCAUCGGUUUAAAAGGCAAGACCGUCAAAUUGCGGGAAAGGGGUCAACAGCCGUUCAGUACCAAGUCUCAGGGGAAACUUUGAGAUGGCCUUGCAAAGGGUAUGGUAAUAAGCUGACGGACAUGGUCCUAACCACGCAGCCAAGUCCUAAGUCAACAGAUCUUCUGUUGAUAUGGAUGCAGUUCACAGACUAAAUGUCGGUCGGGGAAGAUGUAUUCUUCUCAUAAGAUAUAGUCGGACCUCUCCUUAAUGGGAGCUAGCGGAUGAAGUGAUGCAACACUGGAGCCGCUGGGAACUAAUUUGUAUGCGAAAGUAUAUUGAUUAGUUUUGGAGUACUCGUGGUCG
How it was run: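 Library with all eight P1ex-region intron nucleotides randomised, intron inside the knt kanamycin-resistance gene on pET-22b(+), in E. coli BL21(DE3). Cells grew overnight at 37°C or 30°C on LB agar with or without 25 μg/mL kanamycin (plus 100 μg/mL carbenicillin, 50 μM IPTG, 0.2% rhamnose), in six replicate transformations. Pooled colonies were amplicon-sequenced on Illumina HiSeq 2500. DiMSum fitness is the error-weighted combination of wild-type-normalised replicate fold changes, kanamycin versus none.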

Sequence	self-splicing fitness (ln) (30 °C)	self-splicing fitness (ln) (37 °C)
UCUCAGCAAUAUUACGCGUU	-2.55 ± 0.14	-1.55 ± 0.17
UGAAAGCAAUAUUACGGCAU	-1.43 ± 0.076	-0.236 ± 0.1
GAGGAGCAAUAUUACGCCUC		-2.29 ± 0.42
CGACAGCAAUAUUACGUAGU	-3.12 ± 0.099	-2.11 ± 0.12
GAUAAGCAAUAUUACGGGAC	-2.82 ± 0.13	-1.18 ± 0.1
AGUGAGCAAUAUUACGAUUA	-2.67 ± 0.3	-1.47 ± 0.37
GCUGAGCAAUAUUACGCUGC	-2.56 ± 0.32	-1.92 ± 0.3
CACUAGCAAUAUUACGUAAA	-3.48 ± 0.18	-2.61 ± 0.2
UGCGAGCAAUAUUACGACCG	-1.72 ± 0.17	0.112 ± 0.21
UGUGAGCAAUAUUACGAGAG	-3.57 ± 0.23	-2.44 ± 0.22
GAGGAGCAAUAUUACGACUC	-3.04 ± 0.27	-2.25 ± 0.31
CAAGAGCAAUAUUACGUGAU	-3.6 ± 0.21	-2.34 ± 0.22
CUAAAGCAAUAUUACGUACA	-2.52 ± 0.14	-0.872 ± 0.18
CUACAGCAAUAUUACGGCCA	-3 ± 0.28	
UUCUAGCAAUAUUACGCGGU	-2.74 ± 0.2	-0.435 ± 0.24
CCCUAGCAAUAUUACGCUAC	-2.96 ± 0.34	-1.84 ± 0.43
ACUUAGCAAUAUUACGUUGG	-1.67 ± 0.079	-1.05 ± 0.11
CGGUAGCAAUAUUACGAGAA	-2.77 ± 0.32	-1.85 ± 0.33
ACUGAGCAAUAUUACGCGGU	-2.46 ± 0.31	
GUAGAGCAAUAUUACGGUUC	-1.84 ± 0.11	-0.825 ± 0.14
AGCAAGCAAUAUUACGAAUG	-3.77 ± 0.18	-1.71 ± 0.13
AGAGAGCAAUAUUACGCGGU	-3.79 ± 0.43	-2.17 ± 0.46
AAAGAGCAAUAUUACGUUUG	-2.74 ± 0.21	-1.77 ± 0.22
AGGUAGCAAUAUUACGCCUU	-4.13 ± 0.038	-2.87 ± 0.048
GCGGAGCAAUAUUACGUUUC	-2.57 ± 0.39	

Sequence	self-splicing fitness (ln) (30 °C)	self-splicing fitness (ln) (37 °C)
GAGCAGCAAUAUUACGAGUC	-1.91 ± 0.12	-1.92 ± 0.17
CGUAAGCAAUAUUACGCCUU	-2.51 ± 0.23	-2.05 ± 0.31
CGACAGCAAUAUUACGCGCC	-2.02 ± 0.13	-0.187 ± 0.17
AUUUAGCAAUAUUACGCAUC	-3.58 ± 0.19	-3.27 ± 0.32
CGCCAGCAAUAUUACGCCGU	-2.59 ± 0.15	-1.71 ± 0.17
GCACAGCAAUAUUACGCAGU	-1.65 ± 0.12	-1.32 ± 0.13
GAGUAGCAAUAUUACGGGCU	-1.43 ± 0.17	-1.94 ± 0.16
CCCUAGCAAUAUUACGUAGG	-2.61 ± 0.15	-2.15 ± 0.29
AAAAAGCAAUAUUACGCUGA	-4.19 ± 0.34	-1.7 ± 0.17
GCUUAGCAAUAUUACGUCAC		-1.53 ± 0.5
GACCAGCAAUAUUACGCCGG	-2.59 ± 0.16	-2.58 ± 0.29
UUGUAGCAAUAUUACGCUCU	-1.21 ± 0.2	-1.29 ± 0.15
GUGCAGCAAUAUUACGGCCC	-0.475 ± 0.11	-0.704 ± 0.17
AAUGAGCAAUAUUACGACUG	-3.77 ± 0.28	-0.811 ± 0.19
GAUUAGCAAUAUUACGAAGG	-3.53 ± 0.43	-1.8 ± 0.35
GCACAGCAAUAUUACGGCAC	-0.752 ± 0.061	-0.122 ± 0.073
GACUAGCAAUAUUACGGACA	-0.472 ± 0.1	-0.0878 ± 0.11
AUGAAGCAAUAUUACGGUGG	-1.87 ± 0.069	-1.92 ± 0.12
UAUGAGCAAUAUUACGAACG	-2.98 ± 0.19	-1.13 ± 0.16
UUGAAGCAAUAUUACGAUAU	-1.97 ± 0.075	-1.03 ± 0.1
AGCCAGCAAUAUUACGGAGC	-2.39 ± 0.1	-1.83 ± 0.11
GAUUAGCAAUAUUACGUUAC	-2.63 ± 0.19	-2.53 ± 0.23
CACUAGCAAUAUUACGCAGG	-3.27 ± 0.12	-1.26 ± 0.15
AAUCAGCAAUAUUACGAGAG	-1.82 ± 0.15	-1.13 ± 0.13
UGUAAGCAAUAUUACGGAAU		-2.49 ± 0.26

Sequence	self-splicing fitness (ln) (30 °C)	self-splicing fitness (ln) (37 °C)
CGCUAGCAAUAUUACGACGC		-1.92 ± 0.17
UUGGAGCAAUAUUACGAAGA	-2.83 ± 0.41	-2.53 ± 0.49
GAAUAGCAAUAUUACGAUGG	-2.74 ± 0.14	-0.977 ± 0.12
UAAAAGCAAUAUUACGGGGC	-3.59 ± 0.23	-2.33 ± 0.25
CCCCAGCAAUAUUACGUUUC	-4.32 ± 0.28	-2.36 ± 0.23
GCAAAGCAAUAUUACGCUGG	-2.41 ± 0.13	-0.395 ± 0.14
GCGAAGCAAUAUUACGGAAA	-3.34 ± 0.36	-1.57 ± 0.27
CCGAAGCAAUAUUACGUGAG	-1 ± 0.065	-0.698 ± 0.084
CUCCAGCAAUAUUACGAGGU	-4.41 ± 0.31	-3.07 ± 0.24
ACUAAGCAAUAUUACGCGCA	-0.252 ± 0.067	-0.518 ± 0.085
AAACAGCAAUAUUACGACAG	-1.5 ± 0.082	-1.25 ± 0.1
CCGCAGCAAUAUUACGGUAA	-3.69 ± 0.27	-1.99 ± 0.18
GUAAAGCAAUAUUACGGACU	-0.753 ± 0.061	-0.471 ± 0.082
CGUGAGCAAUAUUACGGGUU	-3.99 ± 0.46	-2.65 ± 0.29
CCUCAGCAAUAUUACGAGCU	-4.22 ± 0.37	-1.9 ± 0.23
CAGAAGCAAUAUUACGACAA	-2.84 ± 0.36	-1.88 ± 0.31
CACAAGCAAUAUUACGCAUC	-3.19 ± 0.18	-2.29 ± 0.18
AGAAAGCAAUAUUACGUGCG	-0.896 ± 0.092	-0.684 ± 0.11
GCUUAGCAAUAUUACGCUGA	-2.77 ± 0.17	-3.37 ± 0.26
GGGUAGCAAUAUUACGGAUC	0.0263 ± 0.12	0.637 ± 0.17
CGACAGCAAUAUUACGCCAA	-2.18 ± 0.28	-3.28 ± 0.37
CCCGAGCAAUAUUACGACCG	-4 ± 0.29	-2.24 ± 0.29
UGUUAGCAAUAUUACGAGUG	-0.0674 ± 0.16	-0.336 ± 0.18
AGGAAGCAAUAUUACGGUCG	-0.601 ± 0.1	0.213 ± 0.14
AGCCAGCAAUAUUACGACUA	-1.99 ± 0.14	-1.5 ± 0.14

Sequence	self-splicing fitness (ln) (30 °C)	self-splicing fitness (ln) (37 °C)
CACUAGCAAUAUUACGACAG	-0.114 ± 0.076	0.0358 ± 0.079
UCCUAGCAAUAUUACGCAUA	-2.82 ± 0.3	-2.11 ± 0.2
ACUUAGCAAUAUUACGUCGU	-1.99 ± 0.079	-1.28 ± 0.088
UGUCAGCAAUAUUACGCGCC	-0.7 ± 0.18	-0.523 ± 0.23
CUGCAGCAAUAUUACGCGCA	-3.37 ± 0.15	-2.13 ± 0.15
UGAUAGCAAUAUUACGGAUU	-2.78 ± 0.23	-0.278 ± 0.19
CCGGAGCAAUAUUACGACAG	-0.593 ± 0.13	-0.569 ± 0.14
GCUCAGCAAUAUUACGGAAG	-2.23 ± 0.09	-0.736 ± 0.11
CGAUAGCAAUAUUACGUCUC	-2.61 ± 0.19	-2.55 ± 0.32
GUCAAGCAAUAUUACGGGUC	-3.45 ± 0.19	-2.16 ± 0.18
CGAGAGCAAUAUUACGACAG	-2.82 ± 0.37	-1.15 ± 0.32
CGAUAGCAAUAUUACGCUAU	-2.82 ± 0.19	
AUCUAGCAAUAUUACGUGCA	-0.394 ± 0.15	-0.423 ± 0.18
GACCAGCAAUAUUACGAGAG	-3.61 ± 0.2	-1.51 ± 0.13
ACAUAGCAAUAUUACGAACA	0.105 ± 0.14	-1.05 ± 0.17
GAUGAGCAAUAUUACGGCAG		-2.52 ± 0.41
CUUCAGCAAUAUUACGAGCA		-2.16 ± 0.28
GCCGAGCAAUAUUACGGCUC		-1.49 ± 0.46
GAUGAGCAAUAUUACGAGGA	-2.63 ± 0.17	-2.89 ± 0.15
GUGGAGCAAUAUUACGACGA		-1.12 ± 0.46
UCGUAGCAAUAUUACGACCU	-2.89 ± 0.22	-0.916 ± 0.15
CGGGAGCAAUAUUACGGGAU	-3.37 ± 0.34	
CGGAAGCAAUAUUACGUGAC	-1.6 ± 0.16	-2.12 ± 0.35
AGUCAGCAAUAUUACGGGGA	-3.08 ± 0.19	-1.42 ± 0.18
